Two molecules from patent US20220177569A1 (Novartis, published 2022) can be followed below.

Bounds are passed on as bounds.

In assay [1] the target is T1, Recombinant human IL-1β (human, UniProt P01584 117-269).
T1 construct: also called huIL-1β; IL-1b
Description: SET, simultaneous target binding, Assay B (both targets in serial dilutions in one mix). The protocol:
(§1) The plate was blocked with 50 μl/well blocking buffer (PBS containing 5% BSA) for 1 hour (h), at room temperature (RT). After washing (TBST, TBS containing 0.05% Tween 20), a volume of 30 μl/well of the equilibrated antigen- antibody mix was transferred from the polypropylene MTP to the coated MSD plate and incubated for 20 min at RT. After an additional wash step, 30 μl sulfo tag-labeled anti-IgG detection antibody (0.5 μg/ml) diluted in sample buffer were added to each well and incubated for 30 min at RT on a shaker. The MSD plate was washed and 35 μl/well MSD read buffer were added and incubated for 5 min at RT. Electrochemiluminescence (ECL) signals were generated and measured by the MSD Sector Imager 6000.
(§2) Assay B: The equilibration process (antibody/antigen mix) was performed with both targets in serial dilutions in one mix simultaneously (constant concentration of antibody […], highest antigen conc. see above). The same mix was then analyzed for its free antibody concentration on IL18 and IL-1β coated plates as described above.

The target in assay [2] is T2, Recombinant human IL-18 (human, UniProt Q14116 37-193).
T2 construct: also called huIL-18; hulL-18
The description is as above. Here is the method: as §1, §2

Assay [3] has as its target T3, Recombinant marmoset IL-18 (marmoset, UniProt U3CWC9 37-190).
T3 construct: also called marIL-18
T3 sequence: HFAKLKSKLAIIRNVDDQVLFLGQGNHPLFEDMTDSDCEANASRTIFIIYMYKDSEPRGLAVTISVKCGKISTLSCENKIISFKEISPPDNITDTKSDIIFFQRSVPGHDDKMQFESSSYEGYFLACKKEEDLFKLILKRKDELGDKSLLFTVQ
The description is as above. Here is the method: as §1, §2

Assay [4] deals with T4, Recombinant marmoset IL-1β (marmoset, UniProt U3E018 117-268).
T4 construct: also called marIL-1β
Described as above. Here is the method:
as §1, §2

Assay [5] has as its target T3, Recombinant marmoset IL-18. Description: cell-based or functional assay.
Assay [6] concerns the target T2, Recombinant human IL-18. Nature of the assay: SET (solution equilibrium titration, MSD ECL), individual target binding. The protocol:
as §1

Assay [7] deals with T3, Recombinant marmoset IL-18. Described as above. The protocol: as §1
Assay [8] addresses T2, Recombinant human IL-18. Description: cell-based or functional assay.
The target in assay [9] is T2, Recombinant human IL-18. Nature of the assay: cell-based or functional assay. The source holds these as a separate data set.
For assay [10], the target named is T2, Recombinant human IL-18. Nature of the assay: SET, simultaneous target binding, Assay A (excess of the other target, IL-1β). The protocol:
as §1, §2

In assay [11] the target is T3, Recombinant marmoset IL-18. The assay is described as above. The protocol: as §1, §2
The target of assay [12] is T4, Recombinant marmoset IL-1β. Description: cell-based or functional assay.
In assay [13] the target is T1, Recombinant human IL-1β. Description: cell-based or functional assay.
Assay [14] concerns the target T1, Recombinant human IL-1β. Description: SET (solution equilibrium titration, MSD ECL), individual target binding. The protocol: as §1
For assay [15], the target named is T4, Recombinant marmoset IL-1β. The description is as above. The protocol: as §1
The target in assay [16] is T1, Recombinant human IL-1β. Description: cell-based or functional assay. This is another data set of the same source.
Assay [17] concerns the target T1, Recombinant human IL-1β. Description: SET, simultaneous target binding, Assay A (excess of the other target, IL-18). The protocol:
as §1, §2

Assay [18] concerns the target T4, Recombinant marmoset IL-1β. The description is as above. The protocol:
as §1, §2

B1: mAb1 (IL-18 antibody) (antibody, human IgG1, lambda, L234A L235A, V domains shown)
VH: EVQLVQSGAEVKKPGSSVKVSCKASGGTFKSYAISWVRQAPGQGLEWMGNIIPMTGQTYYAQKFQGRVTITADESTSTAYMELSSLRSEDTAVYYCARAAYHPLVFDNWGQGTLVTVSS
VL: DIVLTQPPSVSGAPGQRVTISCSGSSSNIGNHYVNWYQQLPGTAPKLLIYRNNHRPSGVPDRFSGSKSGTSASLAITGLQSEDEADYYCQSWDYSGFSTVFGGGTKLTVLG
Turning to B1, the binding result in assay [1] is “no binding (tested: highest antigen conc. huIL-1β 0.5 nM)”; in assay [4], “no binding (tested: highest antigen conc. marIL-1β 0.5 nM)”. For the same molecule, the Kd – broadly, the free concentration of one partner at which half of the binding sites on the other are occupied at equilibrium, for simple one-to-one binding – amounted to 0.0114 nM in assay [2]; 0.0263 nM in assay [3]; 0.009 nM in [6]; 0.021 nM in [7]; 0.0135 nM in assay [10]; 0.0271 nM in assay [11]. Also, the “IFNγ prod. Human PBMC IC50 (marmoset IL-18 1 nM and human IL-12 10 ng/ml)” value in [5] was 6.6 nM. In addition, the “IFNγ prod. Marmoset blood IC50 (marmoset IL-18 0.3 nM and human IL-12 10 ng/ml)” value in assay [5] turned out to be 4.7 nM. In [5], the “IFNγ prod. Marmoset blood IC50 (marmoset IL-18 3 nM and human IL-12 10 ng/ml)” value was 181 nM. The “Inhibition of SEAP in HEK reporter cells stimulated simultaneously with IL-1β and IL-18, IC50; mAb1 alone” value in assay [8] was greater than 30 nM. The “Inhibition of SEAP in HEK reporter cells stimulated simultaneously with IL-1β and IL-18, IC50; mAb2 and mAb1 combined” value in [8] amounted to 0.24 nM. In addition, the “IFNγ prod. KG-1 cells IC50 (3 nM recombinant human IL-18 and 1 ng/ml human IL-12)” value in assay [9] is 0.035 nM. The “IFNγ prod. PBMC IC50 (3 nM recombinant human IL-18 and 1 ng/ml human IL-12)” value in assay [9] amounted to 0.78 nM.

B2: mAb2 (IL-1β antibody) (antibody, human IgG1, kappa, V domains shown)
VH: QVQLVESGGGVVQPGRSLRLSCAASGFTFSVYGMNWVRQAPGKGLEWVAIIWYDGDNQYYADSVKGRFTISRDNSKNTLYLQMNGLRAEDTAVYYCARDLRTGPFDYWGQGTLVTVSS
VL: EIVLTQSPDFQSVTPKEKVTITCRASQSIGSSLHWYQQKPDQSPKLLIKYASQSFSGVPSRFSGSGSGTDFTLTINSLEAEDAAAYYCHQSSSLPFTFGPGTKVDIKR
For the molecule B2, the dissociation constant (Kd) in assay [1] came out at 0.0032 nM; in assay [4], 0.0048 nM; in assay [14] it was 0.0006 nM; in [15], 0.001 nM; in [17] it was 0.0011 nM; in assay [18] it was 0.0008 nM. Also, the binding result in assay [2] is listed as “no binding (tested: highest antigen conc. huIL-18 5 nM)”. The “IL-6 prod. dermal fibroblasts IC50, Exp. B (18 pM recombinant marmoset IL-1β; marmoset cells by the reading of the header)” value in assay [12] came to 0.138 nM. In addition, the “IL-6 prod. dermal fibroblasts IC50, Exp. C (18 pM recombinant marmoset IL-1β; human cells by the reading of the header)” value in assay [12] is 0.114 nM. For the same molecule, the “IL-6 prod. marmoset dermal fibroblasts IC50, Exp. A (18 pM recombinant marmoset IL-1β)” value in assay [12] was 95 pM. Also, the “IL-6 prod. PBMC IC50 (human PBMC stimulated with 60 pM recombinant human IL-1β)” value in assay [13] amounted to 0.29 nM. For the same molecule, the “IL-6 prod. derm. fibrobl. IC50 (human dermal fibroblasts stimulated with 6 pM recombinant human IL-1β)” value in assay [13] was found to be 31 pM. Moreover, the “Inhibition of SEAP in HEK reporter cells stimulated simultaneously with IL-1β and IL-18, IC50; mAb2 alone” value in assay [16] amounted to 30 nM. For the same molecule, the “Inhibition of SEAP in HEK reporter cells stimulated simultaneously with IL-1β and IL-18, IC50; mAb2 and mAb1 combined” value in assay [16] is 0.24 nM.
